The record followed here is the domain aggregation screens of Martell et al. (2025).

The nature of this data set: soluble fraction after stress (log2 fold change); higher = more stays soluble; pooled small domains, quantitative proteomics. As to conditions: stress: pH 4. The method in brief: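 Values are log2 fold changes, and higher ones mean more of the domain stayed soluble. Each fold change reflects the soluble amount of a domain after acid stress and is taken as a measure of aggregation propensity. The stress was pH 4, applied to pooled custom libraries of small protein domains analysed by high-throughput quantitative proteomics.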
On to “HMGVPELHKGEIVQAVVEKVLGEGLLRVNLKGMTVEAATSLRLNPGQQLLLRSEGIENGRQVLR”, for which the “soluble fraction (log2)” value stood at 0.042. On to “HMGVQKGKDNALAVQQWIAERDATGDFGEYERRGIINRSALFDELGIPRSSMGSNDQIRQMIEAADVRWF”, for which the “soluble fraction (log2)” value is -0.663. Next, “HMGVREIIVQFLEQFDKPKSVQEIVEYVLRYRNTTENSIRSTMYSGSQFRQFDNGYFGLSDKSYPNEYIYA”: -1.25; “HMGVRLAPEVDRIPYGQMHPNLKKVKDLYEASYKAYVQALSSGNQALAKEKLEEFQSTKARYQRALSAYT”: 0.195; “HMGVRVEVDAVTPPGAMASGSVVFSDGESKKWSVDQFGRLAMTGGAPDYKPSDQDVMEFQQQLEQSL”: -0.57.

Take “HMGVSAGQVRGLIRNLIAGEDKSKPLSDLALERELEKREIRISRRTVAKYRAELGIPNSDQRRYLP”: the “soluble fraction (log2)” value is 0.0779. On to “HMGVSLKEIQENLSLIDDAAQKLASGQGTVDDAVGMGNAGKDIYDNIEGYVSSPKEFINGVLSSV”, for which the “soluble fraction (log2)” value was -0.823. With “HMGVSVNVQPAILDWAMQKAQMGNAGSSVIEMIAKWISGEKAPTFNQIEDVSKKISIPFGFFFLKEPPIE” the figure was -1.21. With “HMGVTGYPNPTREHITWDDARRIEVWNAYGVPVADLRFARGVLDVAGWPVGTYVARIDGGRSVRFVVI” the figure was -0.663; with “HMGVTVDEVHRNFESGMNVVHKKFGAGVVDSFDEGKIRINFDGVIKVFIADVLINSGMLESVSYTH”, -0.922.

As to “HMGWEDLVGKTAVVKVALAPVGMVFFRGEFWSAISETGRIEPGEEVTISRIDGLKLYVTKKRIM”, the “soluble fraction (log2)” value is not below 0.43. With “HMGWEPTPVLVAARDISGGTVLDQDMLRVEAIPSRLVTPSIVRSDLLASVQDAKLLLPMKQGDLLNFNMLQ” the figure was -0.49. With “HMGWVMLVIMSRGASEAQINAVVEKIRAAGLTEHLSKGIERTIIGAIGEERKLEPEVFELLPGVEQALHIV”, the “soluble fraction (log2)” value was -0.713. Next, “HMGYDSYDADTIPKLKIGSIVEHPKFGEGSIISKAGAEVTIAFKIKGVKKINLEYTSIKVLK”: 0.117; “HMGYGEQEQEAQKYLALHALMSQDPTLAKMYQAPNQYKLMSHVMEQNGIKNVNDYLTDPQQLP”: -0.161; “HMGYKDIDKLSGVDLAIYRFIVEHDEQIPYMRVRELARGAHVSNSSVMRFIRKIGYDSFPEFKVSLRS”: -0.322. With “HMGYPGLGSIGSKPLGDLLFQSKLFVKTKREFAEFKMANNNIVWGRRTQYLVRNYPLSVMEVFL” the figure was -0.348; with “HMHAGQIISQKIKESGISISHVAKHLKVQRATLYNLFEREVWPAHRLRTIEALLHIDLSDLYP”, -1.52. Consider “HMHANAALTPRQRLRLAQKIVDEEWTVAAAADYFRVSWPTAAKWARRYVELGEAGMADRSSRP”, for which the “soluble fraction (log2)” value was -0.641.

In the case of “HMHDEKHHQLANEIARKWAALRGNRDFAAADELKNLAAEAGVELQATKQAVGQGALAKLKENFDPVKLEAL”, the “soluble fraction (log2)” value came to 0.22. Next, “HMHDLDALTGLSGEARSKVYEEGSVFVAGEMWSAKSDAVIPAGSSIRVVRREGFILVVEKDS”: -1.97. Next, “HMHDYTTIIGVIELRLNKISYDNVQKRYRIGRSGISLIMERYRDSGLSLDDLKQMPAEKVVNLIYPKD”: -0.108; “HMHDYYDSIDAVTHDKSYESNLVFALKLGYTETQLQKALLKLGKKAREDQILEELIRIQKSSKA”: not below 0.43; “HMHEGNWTLPNPMPIGTTLTLPEHSRLYISNLAGQRVFETSATSVEIPLLPKGTYLLRLETMNGHTTRKIL”: 0.00873.

Regarding “HMHELKIEKVAEAPNGAMRLLLSDGSEWVLGVKSWNRLNLSLEKILDVNVLRALEKESQYHLLRTKALEL”, the “soluble fraction (log2)” value was 0.171. With “HMHFIMEYRIRAYVDELFESAPRTQRAYELKIELTQNLIDKYYALVSEGKSEQDAYNLTVMSIGDVREL” the figure was -0.959; with “HMHGEAVVVPNVKGLPMRQAENEIYKQSLKAVAIDSSYVKGMPPGAILEQNPAGGSKVKKGRTVYLTINMD”, 0.0278. “HMHGERVVTAGQTVRVVFTSNGLQVSSEGKALAAGAVGDDIQVRAASGKVIRGTVTGPGVVQV”: the “soluble fraction (log2)” value is not below 0.43.

As for “HMHGLNQNKPIPIADIVNSVNNYLTSLGKKTITDNSVLSNLKKAAKYLNTAYNLVLRPDSLNMTVTLL”, the “soluble fraction (log2)” value was found to be 0.22. Next, “HMHIMINPDQLSPEQIQSIRTWAEEGLDLNAIQKRLHEDLNIKLTFMDTRFLLQDLDIRIRQPEPEPEAEQ”: -0.67. With “HMHINLEGLKKIDFRKKIGFLFGSEASGLSNKEVSYANYTLQIPTNINFKSLNLSHSLIIIAQFISSLLNS” the figure was 0.126; with “HMHKIRRQTKITKSLLDQIEGIGSSRKKALLNHFGSAKAVGEAGETDLGTVKGISNSLAKKIYDFFHAT”, 0.281. With “HMHLDIGQLVQRILADIQVGKLADGQRKLPAEPVLMERYQVTRYTLRQALKQLSNMGYTYQMHGIGTFVRQ” the figure was -0.211. On to “HMHLKDEHGLTPKQRAFADEYVITLNATVSYKKIYSVKRDSVASTNGSRLLGNANVKAYIDKRLEE”, for which the “soluble fraction (log2)” value came out at 0.172. Next, “HMHLKRQEAINLGAYLLGAELRIHRLSLEELGSERIDEMLAAINYKTLDDLLADIGLGNRPARFVARQLG”: -1.65. With “HMHLLGASIAAYRKKAGMTQEDLGRALFVSGQAVSRWERGGTPDSDMLPKIADVLGISLDTLFGRS” the figure was -0.269. Next, “HMHLRYTYIYDNENRVTSKEASKWDSTQEAWVPYFKMNVSYVNNEVELSYARWNSKSNAYDSSIKKTI”: -0.66; “HMHLTNIPKGFTPSFDTKQWIVEEFGERYNYDNELKIFINHYRASGTTKSDWQYAFRSWLLRAKKFT”: -0.448; “HMHLTRYLHTMIRAANLDDTLDFFVEKLGLIEAYRYSNEAGRFTLVFLSAPDDLESAQSRQAPLVEITYN”: -0.329. With “HMHLYDMYNLTEKEISIIRLIANGLNNKEISQELFLSEGTIKNNITNILAKLELRDRTQLAIFAFKNKIVI”, the “soluble fraction (log2)” value was -0.647. With “HMHMELHEKIRLARELNKWSQEEVAEKLEMSPSGYAKIERGETALNIPRLEQIAEIFNIDIWELVKA” the figure was -1.48; with “HMHMHTADDFKQLAKHTSNGRLRTRYLALYHFKKGETRTQIAAYLGVARGSVNTWVSNYLAYGLEGLQS”, -0.0479; with “HMHMIDDYLARIGQLIRDARQHRGWTQVQLAEALGTSQSAVNRIERGNQNISLEMIARIGEALGSEIVSLG”, -0.64. With “HMHMKTIEWDSLVLIMYKDMKYLKRINEGQSFHGKGGMLNYADLIGKTYGIRFGQYEIFEPSLEDIVMYG” the figure was -0.569; with “HMHMSKKLADSISALRKKNGLSQEQLAEKIGISRQTVSNWERGIATPDVETLNLISKLFDEDLSVMING”, 0.043; with “HMHNISQTGRRIAGMTQERWAEALDISVESVRLYESGRGMPSDDVATRMVEVSGAPVLGYWH”, -1.08. With “HMHNPSYDMSKDVDILVMKFRDYNNLTDDEARFLLDKAKDAYYNTGKEILSDNEYDTLEKSLGQE” the figure was -1.17; with “HMHPEPDPVLFIDGKEYPYDKLSELDETRVQSMTILPKKSAVKKYGDKYANRSIMEITLKKEN”, 0.22; with “HMHPNPLTEQEIAVLKGIAQGLSNQEIADQLYLSNGTVRNYVTNILSKLDAGNRTEAANIAKESGW”, -0.279.

Consider “HMHPSNQELTKVLAQGSELVLAQKYIEASQIFTRVIEIDQTWAEAWNKRATVFYLLQNYEASQKDIDEV”, for which the “soluble fraction (log2)” value was -0.135. With “HMHQKELLNLSYKEAKRYILDDFERVFFTNLLRKTGGNVSRAAQLAQVHRKNLYVKLTELGIDPRQFG” the figure was -0.585; with “HMHQLQLDSRSRLHMTGVIEVESFDEATIVLTTTRGTLIVRGENLHLQLLRLDGGEVLVDGTVDSLSYE”, -1.22. Take “HMHQPPDLDDFEAFVGRVKPALLQALVATYGPVDGREATVDALSWAWEHWDRLADVDHPVGYLYRV”: the “soluble fraction (log2)” value is -0.189. With “HMHRFAVLDTVREVAAGGVAATLSIGVGRDADSFDALFKNASMALEMALSRGGDQAVVKDRMNFQFYGG” the figure was -0.0192.

Consider “HMHRGEIVDGVIASVNPRSILIDIGGKSDALVHPRELERMSDEDLRSLKPGQDVSVYVIETDSDGTMLVSL”, for which the “soluble fraction (log2)” value is -0.86. Consider “HMHSEISGGSKDPFRFMPHLGVEDIHAETDRLSGSGVEFIREPDQESWGGWVATFKDPDGNILQLLQL”, for which the “soluble fraction (log2)” value is -0.0468. With “HMHSQVFTDPDKAKNAVVKLGAPLVVKADGLALGKGVIIAQNPQAAKEAVASVGSSGISSISVT” the figure was 0.22. Next, “HMHTDDDGITEAFPHLRLLSLGEDILDLLEKSRFIRKLNNELVYYVVDFREQNSIDGRRYHPSIYHNL”: -1.31; “HMHTGEVVNGKVIDVKEDQIILNVGFKSDGIITRSEYSNDNSLDLRTVVNVGDDMEAKVLKINDGEGQVLL”: -0.343. Next, “HMHTGLAELTDRERDVLRLIATGMTNAAIGSALAYSPSTIRADTVSIYRKLEVRGRAEAAAVAVAAGLTQP”: 0.123; “HMHTPSGALLSAIEKEWGSFDNFKKEFTTAATSLFGSGWVWLAKDKKGKLYILSENNAGNPITKGYTPILG”: -0.432; “HMHVLNEEYYNRIKAIQFTMNHDDGNSLNDIEKSDIILLGVSRTSKTPTSIYLANRGLRTSNIPLINEK”: -0.316.

As to “HMHVSLADQAYKTIRTNILNLTYPPGTQLTEAKLASDLNMSRSPVRTAIKMLQADGLLVSDYYKSMTVK”, the “soluble fraction (log2)” value was not below 0.43. Regarding “HMHVYSYPAAVKIKNAVGREMMVTLLGRSGTHVQFARQDGEEFVYPISSLDLAAQTLISKYPNDGIKN”, the “soluble fraction (log2)” value was determined as 0.0689. With “HMIAALEGKQAMVLDQVSLHHGQVKLGGEVWTARPLNDQDVYEPGDRVTVMRIDGATAVVWRN” the figure was -0.0548; with “HMIAASPVGGIDRVLELLDARGQRVAWIEASGTEGGQRLRLGWIDAQGAERHGAWVPWSADDLLLYA”, -0.547; with “HMIAASQVLRDARQRSRLTQAELGRRADVPQSVISAYESARREPSVDMLARLVAAAGFDLRIGLTP”, -0.377. With “HMIADPLVINKLMDSMALAINDYNPDSVEPVLDELRQYFSENQLRELSKAMDDFDFDEALNALTLLRT” the figure was -0.619.
